In the supplement of paper PMC12764529:
± gives the half width of the 95% confidence interval.

Assays:
[1] = folding stability dG unfold (combined trypsin and chymotrypsin); higher = more stable
Procedure, shortened: (§1)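 Designed mini-proteins (under 80 residues, no cysteine) in a PA-tagged cDNA display construct were digested with trypsin and chymotrypsin. Each protease was used at 11 concentrations (threefold dilutions) plus a no-protease condition, followed by sequencing. K50 was inferred by Bayesian fitting of sequencing counts, and unfolding free energy was derived against a sequence-predicted unfolded-state K50 and a shared folded-state K50, per protease or combined. Only designs with AlphaFold2 dimer inter-PAE above 15 were kept.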

[2] = folding stability dG unfold from trypsin proteolysis; higher = more stable
Procedure, shortened: as §1

[3] = folding stability dG unfold from chymotrypsin proteolysis; higher = more stable
Procedure, shortened: as §1

Sequence: SAGGNFVVPFKDPEQVKEIREAAEKGEEIEITPPDGKKFTFKVESVEVDPESGRVVIKLPSGKEFPLSAGGS [r16_254_TrMRF]
- folding stability dG unfold [1]: 0.617 ± 0.16 kcal/mol
- folding stability dG unfold [2]: 0.275 ± 0.057 kcal/mol
- folding stability dG unfold [3]: 0.62 ± 0.24 kcal/mol

Sequence: SAGGNIKIKLKGKIYDLNSNKYYDVEIEYDPKTGKAIITTPKGLKFEINPKEKKAEIPSKNYALEIGSAGGS [r16_743_TrMRF]
- folding stability dG unfold [1]: 1.2 ± 0.16 kcal/mol
- folding stability dG unfold [2]: 1.21 ± 0.096 kcal/mol
- folding stability dG unfold [3]: 1.37 ± 0.17 kcal/mol

Sequence: SAGGNIKIQVENHEDGWYMKIWVPGNGKEQEYPFEPGDTIDTLPPGAEPVKIEWFHMNDNPQEFELDSAGGS [r8_487_TrROS]
- folding stability dG unfold [1]: 0.421 ± 0.18 kcal/mol
- folding stability dG unfold [2]: 0.295 ± 0.11 kcal/mol
- folding stability dG unfold [3]: 0.45 ± 0.23 kcal/mol

Sequence: SAGGNINDIAKKLGLPPGGMIMIKDFSLEWHRMPMRVPEEDNDKPKEEKEVPMPMYKAEIKISLFPADSAGG [r13_482_TrROS]
- folding stability dG unfold [1]: 1.52 ± 0.22 kcal/mol
- folding stability dG unfold [2]: 0.955 ± 0.056 kcal/mol
- folding stability dG unfold [3]: 2 ± 0.13 kcal/mol

Sequence: SAGGNIQIHYNPDWGVIRITYMFPSPTEAEDFIKKLLPPGYKIEPIEVERNPDGYYQVSIEIRLPKGASAGG [r13_338_TrROS]
- folding stability dG unfold [1]: 3.64 ± 0.063 kcal/mol
- folding stability dG unfold [2]: 2.82 ± 0.12 kcal/mol
- folding stability dG unfold [3]: 3.924 ± 0.036 kcal/mol

Sequence: SAGGNNAWVQITIPITIKPVYEPEYDPDNGKPKWEPREMEIPITIWAPFDDPEDAERAADDILKSLGISAGG [r13_35_TrROS]
- folding stability dG unfold [1]: 0.756 ± 0.1 kcal/mol
- folding stability dG unfold [2]: 0.837 ± 0.037 kcal/mol
- folding stability dG unfold [3]: 0.769 ± 0.12 kcal/mol

Sequence: SAGGNNIMIWIRKNPKEGKRKIMIYTDSPSWVEMIAEEAKDPGFKIVGPMTVEEAAQKMGFPPDLFISAGGS [r16_438_TrROS]
- folding stability dG unfold [1]: 1.27 ± 0.2 kcal/mol
- folding stability dG unfold [2]: 1.09 ± 0.14 kcal/mol
- folding stability dG unfold [3]: 1.29 ± 0.15 kcal/mol

Sequence: SAGGNPDGKPDGGVSFVVNVAKTKPYIDPSTGKVYPVVEVKPVVIEVKKDEKLDLSELLKNTDYISVSSAGG [r13_753_TrMRF]
- folding stability dG unfold [1]: 0.0383 ± 0.12 kcal/mol
- folding stability dG unfold [2]: -0.463 ± 0.14 kcal/mol
- folding stability dG unfold [3]: 0.142 ± 0.13 kcal/mol

Sequence: SAGGNPRPIELYFPEGKIEKIQEKLREEDGYDVDIQMEQNPDGWFKINITFQDPQRVMDILEKFGITSAGGS [r16_172_TrROS]
- folding stability dG unfold [1]: 1.26 ± 0.089 kcal/mol
- folding stability dG unfold [2]: 1.19 ± 0.058 kcal/mol
- folding stability dG unfold [3]: 1.37 ± 0.031 kcal/mol

Sequence: SAGGPDNIRIDLKIEPTGDSVKITFPIYNPNGSPIKVEMEYQRVGGKKFFRMKIEFGGRPIELWIPISAGGS [r16_476_TrROS]
- folding stability dG unfold [1]: 4.7 ± 0.22 kcal/mol
- folding stability dG unfold [2]: 3.4 ± 0.13 kcal/mol
- folding stability dG unfold [3]: 4.93 ± 0.094 kcal/mol

Sequence: SAGGPEELAERIAEFARENGYEVDVLSVEELPGDFVRIHMRIRGLSEDEPVFERDAVLVFPPLPGERSAGGS [r8_102_TrMRF]
- folding stability dG unfold [1]: 3 ± 0.052 kcal/mol
- folding stability dG unfold [2]: 1.45 ± 0.025 kcal/mol
- folding stability dG unfold [3]: 3.439 ± 0.02 kcal/mol

Sequence: SAGGPETRTFTIPAAPATVTVTLEKVGDGYRVSLTLTNPDGQTVEVPPDQPVVIPAGASVGAALAPESAGGS [r16_669_TrMRF]
- folding stability dG unfold [1]: 1.35 ± 0.1 kcal/mol
- folding stability dG unfold [2]: 1.01 ± 0.034 kcal/mol
- folding stability dG unfold [3]: 1.53 ± 0.091 kcal/mol

Sequence: SAGGPEVEAERFGDTVLVRITLLDPETGEPYEFLAIATRRPDGTVTVTIIHPDGRPSTIPLPLLPLASAGGS [r16_154_TrMRF]
- folding stability dG unfold [1]: 2.26 ± 0.14 kcal/mol
- folding stability dG unfold [2]: 2.63 ± 0.16 kcal/mol
- folding stability dG unfold [3]: 1.88 ± 0.039 kcal/mol

Sequence: SAGGPGAEIWFIKIPIEIEMKMKRKRENDPDGNPRPEWEMEMKIEIPIEIYPIRVRLDPDGKIKSIEFSAGG [r13_148_TrROS]
- folding stability dG unfold [1]: 3.67 ± 0.23 kcal/mol
- folding stability dG unfold [2]: 2.77 ± 0.15 kcal/mol
- folding stability dG unfold [3]: 4.3 ± 0.11 kcal/mol

Sequence: SAGGPGMEPIGEIKLDDGVTIEVWRPPNGWYRAKVEFPDNGKQINYPFNPNMSFEQAKDQIKELARKLSAGG [r13_624_TrROS]
- folding stability dG unfold [1]: 1.52 ± 0.36 kcal/mol
- folding stability dG unfold [2]: 0.519 ± 0.13 kcal/mol
- folding stability dG unfold [3]: 1.86 ± 0.15 kcal/mol

Sequence: SAGGPGRMREREFEIEFPFEPGQSIEDALRELIGLPPGIQIEDIKVEVDPEDGWVKISVTITVYDPNDSAGG [r13_828_TrROS]
- folding stability dG unfold [1]: 1.29 ± 0.15 kcal/mol
- folding stability dG unfold [2]: 1.22 ± 0.042 kcal/mol
- folding stability dG unfold [3]: 1.29 ± 0.071 kcal/mol

Sequence: SAGGPKPKTYDIMIPFDSEEEAEKLMENPEWAKEIAKEIAPLFPGYDIKVEVSWHPETGYFMVKITVSAGGS [r16_320_TrROS]
- folding stability dG unfold [1]: 4.01 ± 0.13 kcal/mol
- folding stability dG unfold [2]: 3.21 ± 0.18 kcal/mol
- folding stability dG unfold [3]: 4.12 ± 0.18 kcal/mol

Sequence: SAGGPKWYYITIKIPDDPKKAERLVDRLQDLFGEDVRINVNPGNNHVTVWIPNDLRPLLKDHGLEITPSAGG [r13_156_TrROS]
- folding stability dG unfold [1]: 2.93 ± 0.047 kcal/mol
- folding stability dG unfold [2]: 2.94 ± 0.086 kcal/mol
- folding stability dG unfold [3]: 2.95 ± 0.02 kcal/mol
